In US20050080013A1 (Pfizer, published 2005):
Non-standard residues stand in square brackets, D forms with d. No end group written: not given here. Aib = CC(C)(N)C(=O)O

Biological target: T1, lecithin:cholesterol acyltransferase (LCAT), purified from human plasma (human, UniProt P04180 25-440)
T1 sequence (looked up): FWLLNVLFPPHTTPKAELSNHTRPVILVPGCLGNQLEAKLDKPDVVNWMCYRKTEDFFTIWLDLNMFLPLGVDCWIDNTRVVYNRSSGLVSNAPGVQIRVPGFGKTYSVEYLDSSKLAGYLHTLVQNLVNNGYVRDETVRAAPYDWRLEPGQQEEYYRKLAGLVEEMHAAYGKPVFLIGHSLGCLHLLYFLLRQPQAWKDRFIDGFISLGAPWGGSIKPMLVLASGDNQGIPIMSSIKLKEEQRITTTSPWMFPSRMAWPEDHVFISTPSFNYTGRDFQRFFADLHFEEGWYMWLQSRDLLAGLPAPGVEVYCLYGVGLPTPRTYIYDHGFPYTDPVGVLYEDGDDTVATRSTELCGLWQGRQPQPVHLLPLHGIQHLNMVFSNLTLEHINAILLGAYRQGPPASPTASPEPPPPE
Assay: cell-based or functional assay

| ACTIVITY (%) LCAT | Binder |
| --- | --- |
| 16% | PVLDLFRELLNELLEALKQ [peptide 60] |
| 2% | PVLDLFRELLNEELEALKQKLK [peptide 98] |
| 5% | PVLDEFREKLNE[Aib]LKALKQKLK [peptide 93] |
| 7% | PVLDKFRELLNE[Aib]LEALKQKLK [peptide 88] |
| 80% | PVLDLFRELLNE[Aib]LEALKQKLK [peptide 6] |
| 5% | PVLDLFRELLNL[Aib]LEALKQKLK [peptide 95] |
| 7% | PVLELFERLLDELLNALQKKLK [peptide 86] |
| 10% | PVLDKFREKLNE[Aib]LEALKQKLK [peptide 74] |
| 11% | PVLDLFRELLNE[Aib]LWALKQKLK [peptide 72] |
| 7% | [dP][dL][dL][dE][dL][dL][dK][dE][dL][dL][dQ][dE][dL][dL][dE][dA][dL][dK][dQ][dK][dL][dK] [peptide 87] |
| 12% | PVLDEFRELLYE[Aib]LEALKQKLK [peptide 70] |
| 18% | PVLDLFRNLLEELLKALEQKLK [peptide 57] |
| 7% | PLDLFRELLNELLEALKQKLK [peptide 85] |
| 9% | PVLDLFERLLNELLEALQKKLK [peptide 80] |
| 5% | [dP][dV][dL][dD][dL][dF][dR][dE][dL][dL][dN][dE][Aib][dL][dE][dA][dL][dK][dQ][dK][dL][dK] [peptide 96] |
| 10% | PVLDEFWEKLNE[Aib]LEALKQKLK [peptide 73] |
| 19% | VVLDLFRELLNELLEALKQKLK [peptide 53] |
| 2% | [dP][dV][dL][dD][dL][dF][dR][dE][dL][dL][dN][dE][dL][dL][dE][dA][dL][dK][dQ][dK][dL][dK] [peptide 100] |
| 7% | PVLDEFREKLNELLEALKQKLK [peptide 84] |
| 6% | PVLDEFRELLNE[Aib]LEALKQKLK [peptide 91] |
| 6% | DEFREKLNE[Aib]LEALKQKLK [peptide 90] |
| 83% | PVLDLFKELLNELLEALKQKLK [peptide 7] |
| 9% | PVLDEFREKLNK[Aib]LEALKQKLK [peptide 77] |
| 83% | PVLDLFRELLNEGLEALKQKLK [peptide 8] |
| 2% | KLKQKLAELLENLLERFLDLVP [peptide 99] |
| 18% | PVLDEFREKLNE[Aib]LEALKQKL [peptide 58] |
| 2% | PVLDLFRELLNW[Aib]LEALKQKLK [peptide 101] |

| ACTIVITY (%) LCAT | Binder |
| --- | --- |
| 4% | PVLDLFRELLNELLE [peptide 97] |
| 16% | PVLDEFRWKLNE[Aib]LEALKQKLK [peptide 61] |
| 18% | PVLDLFRELLNELLEALKQKKK [peptide 56] |
| 5% | PVLDEFREKLNEALEALKQKLK [peptide 94] |
| 8% | LDEFREKLNE[Aib]LEALKQKLK [peptide 82] |
| 16% | PVLDFFREKLNE[Aib]LEALKQKLK [peptide 63] |
| 20% | PVLDLFWELLNE[Aib]LEALKQKLK [peptide 51] |
| 5% | PVLDEFRELYNE[Aib]LEALKQKLK [peptide 92] |
| 11% | PVLDEFREKLNEL[Aib]EALKQKLK [peptide 71] |
| 10% | PVLDEFREKLNEELEALKQKLK [peptide 75] |
| 14% | PVLDEFRELLKE[Aib]LEALKQKLK [peptide 68] |
| 16% | PVLDEWREKLNE[Aib]LEALKQKLK [peptide 62] |
| 14% | VLDLFRELLNELLEALKQKLK [peptide 67] |
| 6% | PVLDEFREKLNE[Aib]LWALKQKLK [peptide 89] |
| 9% | PVLDEFRELLNELLEALKQKLK [peptide 79] |
| 19% | PLFRELLNELLEALKQKLK [peptide 55] |
| 9% | PVLDEFRELLFE[Aib]LEALKQKLK [peptide 76] |
| 2% | PVLDLFRELLNL[Aib]LEALKEKLK [peptide 102] |
| 15% | PWLDEFREKLNE[Aib]LEALKQKLK [peptide 64] |
| 83% | PVLDLFRELGNELLEALKQKLK [peptide 9] |
| 17% | LVLDLFRELLNELLEALKQKLK [peptide 59] |
| 13% | PVLDEFRKKLNE[Aib]LEALKQKLK [peptide 69] |
| 19% | PVLDLFRELLNEWLEALKQKLK [peptide 54] |
| 15% | VLDEFREKLNE[Aib]LEALKQKLK [peptide 65] |
| 20% | PVWDEFREKLNE[Aib]LEALKQKLK [peptide 52] |
| 15% | PVLDLFRNLLEELLEALQKKLK [peptide 66] |
